Measurements as given in US20240368250A1 (Ablynx, published 2024).
Numbering of substitutions follows the chain as printed.

B1: TPP-66147 (Fc fusion)
chain 1: DVQLVESGGGVVQAGGSLSISCAASGGSLSNYVLGWFRQAPGKEREFVAAINWRGDITIGPPNVEGRFTISRDNAKNTGYLQMNSLAPDDTALYYCGAGTPLNPGAYIYDWSYDYWGRGTLVTVSSDKTHTCPPCPAPEAAGGPSVFLFPPKPKDTLMISRTPEVTCVVVDVSQEDPEVQFNWYVDGVEVHNAKTKPREEQFNSTYRVVSVLTVLHQDWLNGKEYKCKVSNKGLPSSIEKTISKAKGQPREPQVYTLPPCQEEMTKNQVSLWCLVKGFYPSDIAVEWESNGQPENNYKTTPPVLDSDGSFFLYSKLTVDKSRWQEGNVFSCSVMHEALHNHYTQKSLSLSLGGGGGSGGGGSGGGGSGGGGSGGGGSGGGGSGGGGSEVQLVESGGGVVQPGGSLRLSCAASGFTFRSFGMSWVRQAPGKGPEWVSSISGSGSDTLYADSVKGRFTISRDNSKNTLYLQMNSLRPEDTALYYCTIGGSLSRSSQGTLVTVSSA
chain 2: DVQLVESGGGVVQAGGSLSISCAASGGSLSNYVLGWFRQAPGKEREFVAAINWRGDITIGPPNVEGRFTISRDNAKNTGYLQMNSLAPDDTALYYCGAGTPLNPGAYIYDWSYDYWGRGTLVTVSSDKTHTCPPCPAPEAAGGPSVFLFPPKPKDTLMISRTPEVTCVVVDVSQEDPEVQFNWYVDGVEVHNAKTKPREEQFNSTYRVVSVLTVLHQDWLNGKEYKCKVSNKGLPSSIEKTISKAKGQPREPQVCTLPPSQEEMTKNQVSLSCAVKGFYPSDIAVEWESNGQPENNYKTTPPVLDSDGSFFLVSKLTVDKSRWQEGNVFSCSVMHEALHNRFTQKSLSLSLG
notes: IgG4 FALA Fc knob-in-hole, C-terminal ALB23002 via 35GS
B2: TPP-66148 (Fc fusion)
chain 1: DVQLVESGGGVVQAGGSLSISCAASGGSLSNYVLGWFRQAPGKEREFVAAINWRGDITIGPPNVEGRFTISRDNAKNTGYLQMNSLAPDDTALYYCGAGTPLNPGAYIYDWSYDYWGRGTLVTVSSDKTHTCPPCPAPEAAGGPSVFLFPPKPKDTLMISRTPEVTCVVVDVSQEDPEVQFNWYVDGVEVHNAKTKPREEQFNSTYRVVSVLTVLHQDWLNGKEYKCKVSNKGLPSSIEKTISKAKGQPREPQVYTLPPCQEEMTKNQVSLWCLVKGFYPSDIAVEWESNGQPENNYKTTPPVLDSDGSFFLYSKLTVDKSRWQEGNVFSCSVMHEALHNHYTQKSLSLSLGGGGGSGGGGSGGGGSGGGGSGGGGSGGGGSGGGGSEVQLVESGGGVVQPGGSLRLSCAASGLTFSSYAMGWFRQAPGKERERVVSISRGGGYTYYADSVKGRFTISRDNSKNTVYLQMNSLRPEDTALYYCAAARYWATGSEYEFDYWGQGTLVTVSSA
chain 2: B1 chain 2
notes: IgG4 FALA Fc knob-in-hole, C-terminal ALBX00002 via 35GS
B3: TPP-66174 (Fc fusion)
chain 1: B1 chain 1 with M158Y, S160T, T162E
chain 2: B1 chain 2 with M158Y, S160T, T162E
notes: IgG4 FALA Fc (YTE) knob-in-hole, C-terminal ALB23002 via 35GS; also called ALB23002 ISVD-Fc(YTE) polypeptide

The binders below were run against Human serum albumin (HSA; Sigma-Aldrich Cat No. A8763) (human, UniProt P02768 25-609) (assay: SPR Biacore 8K+, HSA on C1 chip, pH 7.4, 1:1 fit).

Binder | Kd [µM] | koff [s⁻¹] | kon [M⁻¹ s⁻¹]
B1 | 0.0271 | 0.00119 | 43800
B2 | 0.0051 | 0.000247 | 48500
B3 | 0.0215 | 0.00104 | 48400

These binders were tested against T1, Human FcRn (biotinylated human FcRn) (human, UniProt P61769 21-119) (assay: SPR Biacore 8K+, biotinylated hFcRn on SA chip (~500-600 RU), pH 6.0, bivalent analyte fit;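 further: analytes were Fc proteins binding to biotinylated human FcRn captured on a Series S streptavidin sensor chip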).
T1 construct: Biotinylated human FcRn captured on a Series S Sensor Chip SA; also called human neonatal Fc receptor; hFcRn

Binder | KD2 [M] | ka2 | kd2 [s⁻¹]
B1 | 3.17 | 3.3e-05 1/RUs | 0.000105
B2 | 2.14 | 3.33e-05 1/RUs | 7.12e-05
B3 | 2.04 | 55.8 1/RUs | 114

The binders below were run against T1, Human FcRn (biotinylated human FcRn) (assay: SPR Biacore 8K+, biotinylated hFcRn on SA chip (~500-600 RU), pH 6.0, bivalent analyte fit (ka1)).

Binder | kon [M⁻¹ s⁻¹]
B1 | 101000
B2 | 107000
B3 | 65000

These binders were tested against Mouse serum albumin (MSA; Albumin Bioscience Cat No. 2601) (mouse, UniProt P07724 25-608) (assay: SPR Biacore 8K+, MSA on C1 chip, pH 7.4, 1:1 fit (off-rate only)).

Binder | koff [s⁻¹]
B1 | 0.075
B2 | 0.00187
B3 | 0.0819

These binders were tested against T1, Human FcRn (biotinylated human FcRn) (assay: SPR Biacore 8K+, biotinylated hFcRn on SA chip (~500-600 RU), pH 6.0, bivalent analyte fit (KD1)).

Binder | Kd [µM]
B1 | 1.06
B2 | 1.03
B3 | 0.121

What follows are binders tested against T1, Human FcRn (biotinylated human FcRn) (assay: SPR Biacore 8K+, biotinylated hFcRn on SA chip (~500-600 RU), pH 6.0, bivalent analyte fit (kd1)).

Binder | koff [s⁻¹]
B1 | 0.107
B2 | 0.11
B3 | 0.00786
